Reference: patent publication US20220259327A1 (published 2022)
Where a chain is given by its changes, count along the chain named. In names and notes the source's numbering stands.

T1: cyCD19 ECD (cynomolgus, UniProt A0A2K5W8L9 20-292)
T1 construct: extracellular domain; also called cynomolgus CD19 extracellular domain
T1 sequence: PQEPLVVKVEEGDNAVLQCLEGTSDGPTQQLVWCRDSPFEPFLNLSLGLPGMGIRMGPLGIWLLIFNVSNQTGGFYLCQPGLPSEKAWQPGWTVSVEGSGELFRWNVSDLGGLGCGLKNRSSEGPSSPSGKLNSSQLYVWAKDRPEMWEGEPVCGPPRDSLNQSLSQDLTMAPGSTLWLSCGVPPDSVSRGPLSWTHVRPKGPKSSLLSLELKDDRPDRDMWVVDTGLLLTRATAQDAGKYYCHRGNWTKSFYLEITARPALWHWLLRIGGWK

B1: wild-type humanized anti-human CD19 antibody (var.0) (antibody, V domains shown)
VH: QVQLVQSGAEVKKPGASVKVSCKASGYTFTDYIMHWVRQAPGQGLEWMGYINPYNDGSKYTEKFNGKATMTSDTSISTAYMELSRLRSDDTAVYYCARGTYYYGSALFDYWGQGTTVTVSS
VL: DIVMTQTPLSLSVTPGQPASISCKSSQSLENSNGNTYLNWYLQKPGQSPQLLIYRVSKRFSGVPDRFSGSGSGTDFTLKISRVEAEDVGVYYCLQLTHVPYTFGQGTKLEIK
B2: humanized anti-human CD19 antibody var.9 (S27eP/N28S) (antibody, V domains shown)
VH: B1 VH with N65Q, K67R, A68V
VL: B1 VL with S32P, N33S
B3: humanized anti-human CD19 antibody var.5 (S27eP), named clone 8B8-018 (antibody, V domains shown)
VH: B1 VH with N65Q, K67R, A68V
VL: B1 VL with S32P
notes: also called variant 5

Biological target: T1, cyCD19 ECD
Assay: binding to cyCD19 ECD, method not stated

Binder | EC50 [µg/mL]
B1 | 0.313
B2 | 0.435
B3 | 0.255
